Reference: paper PMC2728497

Molecular target: Aβ1-40wt (human)
Experiment: SEC

Q: Aβ1-40wt (peptide) was tested. Which stoichiometry N did it give?
A: The stoichiometry N was 2.
